The test deals with 17b (CD4-induced human monoclonal antibody). The experiment in a line: flow cytometry of transfected 293T cells: staining with 10 μg/ml 17b with or without sCD4-183, detection with APC anti-human IgG F(ab')2, arithmetic mean APC fluorescence of live (propidium iodide negative) single cells; 'All titrations …. The settings on record: sCD4-183 at 0, 0.078125, 0.3125, 1.25, 5, 20, 80 μM (row value in value_extra.sCD4_183_uM), 20 min staining at room temperature, CAUTION: 17b staining of cell-surface trimers with sCD4, mostly reports trimer opening, normalized per Env, one titration each. Higher = more 17b staining of cell-surface Env. 17b's epitope is exposed, numbering: unknown, sequence starts at 1. For orientation: In flow cytometry, cells or beads pass a laser one at a time.

Where [1] appears, read: sCD4-183 0 μM, parent: 0.0187, scale: normalized MFI.
[2] abbreviates: sCD4-183 0.078125 μM, parent: 0.0465, scale: normalized MFI.
Setting [3] is: sCD4-183 0.3125 μM, parent: 0.0578, scale: normalized MFI.
Where [4] appears, read: sCD4-183 1.25 μM, parent: 0.0973, scale: normalized MFI.
Where [5] appears, read: sCD4-183 5 μM, parent: 0.198, scale: normalized MFI.
Where [6] appears, read: sCD4-183 20 μM, parent: 0.585, scale: normalized MFI.
[7] abbreviates: sCD4-183 80 μM, parent: 1, scale: normalized MFI.
Where [8] appears, read: AUC over sCD4-183 0-80 μM, parent: 0.907, scale: area under the normalized MFI curve, log10 x-axis.

On to “HIV-1 JR-CSF envelope glycoprotein gp160 (Env), P20871 JR-CSF_F210A”, for which the screen value runs as follows: under setting [1], 0.0285; under setting [2], 0.184; under setting [3], 0.319; under setting [4], 0.527; under setting [5], 0.908; under setting [6], 1. For the same substance, the screen value under setting [7] turned out to be 0.997.

Turning to “HIV-1 JR-CSF envelope glycoprotein gp160 (Env), P20871 JR-CSF_S199A”, the screen value under setting [8] was 2.18; the screen value under setting [1] was 0.0532; the screen value under setting [2] was 0.183; the screen value under setting [3] came to 0.348; the screen value under setting [4] came to 0.593; the screen value under setting [5] stood at 0.931. Further, the screen value reads like this: under setting [6], 0.997; under setting [7], 1.

Regarding “HIV-1 JR-CSF envelope glycoprotein gp160 (Env), P20871 JR-CSF_Y173A”, the screen value came out at 1.72 under setting [8]; 0.137 under setting [1]; 0.199 under setting [2]; 0.265 under setting [3]; 0.357 under setting [4]; 0.533 under setting [5]. For the same substance, the screen value is 0.862 under setting [6] and 1 under setting [7].

As to “HIV-1 JR-CSF envelope glycoprotein gp160 (Env), P20871 JR-CSF_P470A”, the screen value by setting is: under setting [8], 1.6; under setting [1], 0.119; under setting [2], 0.215; under setting [3], 0.298; under setting [4], 0.381; under setting [5], 0.492. The screen value by setting is: under setting [6], 0.645; under setting [7], 1.

With “HIV-1 JR-CSF envelope glycoprotein gp160 (Env), P20871 JR-CSF_N156A”, the screen value under setting [8] is 2.72; the screen value under setting [1] came out at 0.272; the screen value under setting [2] worked out at 0.437; the screen value under setting [3] is 0.595; the screen value under setting [4] is 0.796; the screen value under setting [5] was found to be 0.913. The screen value under setting [6] came to 1 and the screen value under setting [7] amounted to 0.984.

As to “HIV-1 JR-CSF envelope glycoprotein gp160 (Env), P20871 JR-CSF_I323A”, the screen value is, setting by setting: under setting [8], 2.75; under setting [1], 0.211; under setting [2], 0.421; under setting [3], 0.606; under setting [4], 0.838; under setting [5], 0.988. In addition, the screen value under setting [6] is 1 and the screen value under setting [7] was 0.946.

With “HIV-1 JR-CSF envelope glycoprotein gp160 (Env), P20871 JR-CSF_F317A”, the screen value under setting [8] was 3.03; the screen value under setting [1] amounted to 0.358; the screen value under setting [2] came out at 0.582; the screen value under setting [3] was found to be 0.76; the screen value under setting [4] turned out to be 0.878; the screen value under setting [5] was 0.942. For the same substance, the screen value is 0.988 under setting [6] and 1 under setting [7].

Regarding “HIV-1 JR-CSF envelope glycoprotein gp160 (Env), P20871 JR-CSF_I309A”, the screen value stood at 3.03 under setting [8]; 0.326 under setting [1]; 0.555 under setting [2]; 0.777 under setting [3]; 0.912 under setting [4]; 0.974 under setting [5]. Also, the screen value reads like this: under setting [6], 0.97; under setting [7], 1.

Consider “HIV-1 JR-CSF envelope glycoprotein gp160 (Env), P20871 JR-CSF_T303A”, for which the screen value is 2.51 under setting [8]; 0.128 under setting [1]; 0.303 under setting [2]; 0.493 under setting [3]; 0.793 under setting [4]; 0.976 under setting [5]. Moreover, the screen value under setting [6] amounted to 1 and the screen value under setting [7] worked out at 0.93.

Consider “HIV-1 JR-CSF envelope glycoprotein gp160 (Env), P20871 JR-CSF_T320A”, for which the screen value runs as follows: under setting [8], 2.47; under setting [1], 0.13; under setting [2], 0.297; under setting [3], 0.477; under setting [4], 0.754; under setting [5], 0.942. Besides, the screen value by setting is: under setting [6], 1; under setting [7], 0.974.

Consider “HIV-1 JR-CSF envelope glycoprotein gp160 (Env), P20871 JR-CSF_W112A”, for which the screen value came out at 1.64 under setting [8]; 0.00342 under setting [1]; 0.153 under setting [2]; 0.255 under setting [3]; 0.378 under setting [4]; 0.566 under setting [5]. Also, the screen value reads like this: under setting [6], 0.852; under setting [7], 1.

For “HIV-1 JR-CSF envelope glycoprotein gp160 (Env), P20871 JR-CSF_N332A”, the screen value reads like this: under setting [8], 1.33; under setting [1], 0.0498; under setting [2], 0.0842; under setting [3], 0.124; under setting [4], 0.2; under setting [5], 0.456. The screen value is, setting by setting: under setting [6], 0.802; under setting [7], 1.

For the substance “HIV-1 JR-CSF envelope glycoprotein gp160 (Env), P20871 JR-CSF_T303I”, the screen value was found to be 1.66 under setting [8]; 0.0358 under setting [1]; 0.0925 under setting [2]; 0.153 under setting [3]; 0.308 under setting [4]; 0.682 under setting [5]. Further, the screen value reads like this: under setting [6], 0.979; under setting [7], 1.

As to “HIV-1 JR-CSF envelope glycoprotein gp160 (Env), P20871 JR-CSF_Y384A”, the screen value came out at 0.03 under setting [1]; 0.141 under setting [2]; 0.264 under setting [3]; 0.357 under setting [4]; 0.491 under setting [5]; 0.712 under setting [6]. The screen value under setting [7] stood at 1.

Regarding “HIV-1 JR-CSF envelope glycoprotein gp160 (Env), P20871 JR-CSF_T202A”, the screen value under setting [8] turned out to be 2.71; the screen value under setting [1] came out at 0.144; the screen value under setting [2] came out at 0.403; the screen value under setting [3] worked out at 0.617; the screen value under setting [4] stood at 0.843; the screen value under setting [5] was 1. For the same substance, the screen value runs as follows: under setting [6], 0.973; under setting [7], 0.97.

Turning to “HIV-1 JR-CSF envelope glycoprotein gp160 (Env), P20871 JR-CSF_N197K”, the screen value by setting is: under setting [8], 2.29; under setting [1], 0.116; under setting [2], 0.231; under setting [3], 0.402; under setting [4], 0.643; under setting [5], 0.91. In addition, the screen value under setting [6] is 1 and the screen value under setting [7] is 0.993.

“HIV-1 JR-CSF envelope glycoprotein gp160 (Env), P20871 JR-CSF_I307A”: the screen value by setting is: under setting [8], 3.25; under setting [1], 0.46; under setting [2], 0.691; under setting [3], 0.871; under setting [4], 0.946; under setting [5], 0.908. Further, the screen value worked out at 1 under setting [6] and 0.979 under setting [7].

Values taken from publication PMC11774494.
